Source: patent US20190038762A1 (Takeda / Millennium, published 2019)

Target: T1, guanylyl cyclase C (GCC), myc-tagged, full-length, expressed on HEK293-GCC#2 cells (UniProt P25092 24-1073, limits assumed)
T1 construct: whole, on cells; also called GCC antigen; GCC-expressing cells
Test: indirect immunofluorescence flow cytometry on HEK293-GCC#2 cells
Description: HEK293-GCC#2 and vector control cells were grown in standard cell culture medium supplemented with 10% fetal bovine serum (FBS). […] This centrifugation-wash step was repeated once more before cells were re-suspended at a concentration of 5×10⁶ cells/mL in 3% FBS/PBS, and added to the experimental wells of a V-bottom 96-well plate in 100 μL aliquots (˜500,000 cells). The plate was centrifuged for 5 min at 1200 rpm.
Following centrifugation, supernatant was removed from each well and replaced with 50 μL of primary antibody-drug conjugate solution. […] The 96-well dish was covered and incubated at 4° C. (on ice) for 1 hour before solutions were removed from the wells and the cells were washed twice in 100 μL of 3% FBS/PBS (without Ca²⁺ or Mg²⁺).
After completion of the second wash, 50 μL of secondary antibody solution was added to each experimental well, and the covered 96-well plate was placed at 4° C. (on ice) for 1 hour. The plate was then centrifuged, and the supernatant was replaced with 100 μL of 3% FBS/PBS (without Ca²⁺ or Mg²⁺). This centrifugation-wash step was repeated for a total of two cycles. The cells were finally reconstituted in 200 μL of PBS (without Ca²⁺ or Mg²⁺) and loaded onto the BD FACS Canto flow cytometer (BD Biosciences, Franklin Lakes, N.J.). Data were analyzed using FACS II Canto system software and the appropriate filter settings.

T1 sequence (P25092 24-1073 limits assumed): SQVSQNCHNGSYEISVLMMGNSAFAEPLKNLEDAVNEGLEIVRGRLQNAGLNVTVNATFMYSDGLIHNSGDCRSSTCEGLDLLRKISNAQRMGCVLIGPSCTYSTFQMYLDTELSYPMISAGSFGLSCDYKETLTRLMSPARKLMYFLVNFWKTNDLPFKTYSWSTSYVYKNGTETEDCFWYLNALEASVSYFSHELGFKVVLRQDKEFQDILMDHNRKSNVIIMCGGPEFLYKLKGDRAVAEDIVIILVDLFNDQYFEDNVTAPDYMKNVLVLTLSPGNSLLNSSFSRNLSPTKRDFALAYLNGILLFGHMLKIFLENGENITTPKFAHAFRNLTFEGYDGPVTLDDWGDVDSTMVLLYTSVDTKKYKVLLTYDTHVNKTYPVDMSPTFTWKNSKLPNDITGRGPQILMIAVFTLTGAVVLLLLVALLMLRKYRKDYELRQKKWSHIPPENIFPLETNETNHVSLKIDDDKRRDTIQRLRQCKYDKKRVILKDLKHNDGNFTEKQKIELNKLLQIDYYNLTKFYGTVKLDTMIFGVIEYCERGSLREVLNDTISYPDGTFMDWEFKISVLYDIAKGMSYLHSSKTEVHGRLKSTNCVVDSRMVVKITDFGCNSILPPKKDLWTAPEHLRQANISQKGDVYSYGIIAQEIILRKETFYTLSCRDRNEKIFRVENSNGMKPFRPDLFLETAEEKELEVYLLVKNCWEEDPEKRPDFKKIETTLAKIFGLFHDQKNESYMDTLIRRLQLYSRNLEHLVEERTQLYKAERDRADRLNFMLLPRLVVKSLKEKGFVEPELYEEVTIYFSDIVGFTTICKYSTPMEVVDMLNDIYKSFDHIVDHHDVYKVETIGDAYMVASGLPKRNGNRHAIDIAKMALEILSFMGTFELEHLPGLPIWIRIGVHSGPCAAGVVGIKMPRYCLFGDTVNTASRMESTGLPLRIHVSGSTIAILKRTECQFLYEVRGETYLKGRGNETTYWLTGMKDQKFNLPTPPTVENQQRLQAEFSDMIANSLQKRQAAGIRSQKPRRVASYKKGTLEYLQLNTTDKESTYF

- Affinity: 35 ng/mL
B1: 5F9 antibody (anti-GCC human monoclonal antibody 5F9, hIgG1/hKappa) (antibody, V domains shown)
VH: QVQLQQWGAGLLKPSETLSLTCAVFGGSFSGYYWSWIRQPPGKGLEWIGEINHRGNTNDNPSLKSRVTISVDTSKNQFALKLSSVTAADTAVYYCARERGYTYGNFDHWGQGTLVTVSS
VL: EIVMTQSPATLSVSPGERATLSCRASQSVSRNLAWYQQKPGQAPRLLIYGASTRATGIPARFSGSGSGTEFTLTIGSLQSEDFAVYYCQQYKTWPRTFGQGTNVEIKR
notes: The hybridoma antibody was IgG2, kappa; also called hu5F9; Human 5F9 antibody
